Test results reported in IntAct's records for PubMed 20124439.

B1: Glycosylphosphatidylinositol-anchored high density lipoprotein-binding protein 1 (Homo sapiens), Q8IV16 (parent)
chain: MKALGAVLLALLLFGRPGRGQTQQEEEEEDEDHGPDDYDEEDEDEVEEEETNRLPGGRSRVLLRCYTCKSLPRDERCNLTQNCSHGQTCTTLIAHGNTESGLLTTHSTWCTDSCQPITKTVEGTQVTMTCCQSSLCNVPPWQSSRVQDPTGKGAGGPRGSSETVGAALLLNLLAGLGAMGARRP
partner: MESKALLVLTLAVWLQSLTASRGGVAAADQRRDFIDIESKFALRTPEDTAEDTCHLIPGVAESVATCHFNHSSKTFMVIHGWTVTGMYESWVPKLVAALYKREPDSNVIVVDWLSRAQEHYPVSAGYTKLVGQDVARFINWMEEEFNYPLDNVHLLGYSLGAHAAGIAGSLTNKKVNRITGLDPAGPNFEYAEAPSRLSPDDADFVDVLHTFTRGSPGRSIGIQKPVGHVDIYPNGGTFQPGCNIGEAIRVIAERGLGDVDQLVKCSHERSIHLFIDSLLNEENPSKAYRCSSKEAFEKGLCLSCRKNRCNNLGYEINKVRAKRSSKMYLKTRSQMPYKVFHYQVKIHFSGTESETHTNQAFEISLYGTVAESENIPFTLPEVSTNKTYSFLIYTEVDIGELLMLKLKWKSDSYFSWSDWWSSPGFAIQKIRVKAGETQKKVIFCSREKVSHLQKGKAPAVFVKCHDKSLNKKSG

Variants of: B1
Conditions: with lipl_human LPL

Variant | effect of a mutation on the interaction
MKALGAVLLALLLFGRPGRGQTQQEEEEEDEDHGPDDYDEEDEDEVEEEETNRLPGGRSRVLLRCYTCKSLPRDERCNLTQNCSHGQTCTTLIAHGNTESGLLTTHSTWCTDSCPPITKTVEGTQVTMTCCQSSLCNVPPWQSSRVQDPTGKGAGGPRGSSETVGAALLLNLLAGLGAMGARRP | decreasing interaction
MKALGAVLLALLLFGRPGRGQTQQEEEEEDEDHGPDDYDEEDEDEVEEEETNRLPGGRSRVLLRYYTCKSLPRDERCNLTQNCSHGQTCTTLIAHGNTESGLLTTHSTWCTDSCQPITKTVEGTQVTMTCCQSSLCNVPPWQSSRVQDPTGKGAGGPRGSSETVGAALLLNLLAGLGAMGARRP | decreasing interaction
